± gives the standard deviation.
Assay: protein stability index of a GFP-peptide fusion (GPS, HEK-293T) (PSI 1-6); higher = more stable
Details: c terminus: a fixed tail appended
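Note: 24-mer peptide tiles fused after GFP, lentivirally expressed, FACS-sorted into six equal bins by GFP/DsRed ratio, decoded by Illumina sequencing, PSI is the read-weighted mean bin number.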

Sequence: RVQVQVVERAQQVAVQEQEIARRE [FLOT1]
- protein stability index (treatment: DMSO): 5 ± 0.43
- protein stability index (treatment: MLN4924 1 uM, 8 h): 4.76 ± 0.67

Sequence: EEFPKREDQEGSPPETSLPYKWVV [MYBL2]
- protein stability index (treatment: DMSO): 3.83 ± 0.33
- protein stability index (treatment: MLN4924 1 uM, 8 h): 3.99 ± 0.41

Sequence: YYIPLVELVPHPETAPTTVDRTHA [CRYL1]
- protein stability index (treatment: DMSO): 3.06 ± 0.28
- protein stability index (treatment: MLN4924 1 uM, 8 h): 3.1 ± 0.26

Sequence: IERSKIVSTMRCKTRQKSEKQMEE [PPEF2]
- protein stability index (treatment: DMSO): 4.5 ± 0.21
- protein stability index (treatment: MLN4924 1 uM, 8 h): 4.5 ± 0.1

Sequence: MHPKETTRQLSLAVKDGLIVETLT [ZMYND11]
- protein stability index (treatment: DMSO): 3.27 ± 0.28
- protein stability index (treatment: MLN4924 1 uM, 8 h): 3.36 ± 0.24

Sequence: GEASYSTIAPTLIADLFVADQRSR [SPNS1]
- protein stability index (treatment: DMSO): 3.21 ± 0.39
- protein stability index (treatment: MLN4924 1 uM, 8 h): 3.29 ± 0.6

Sequence: AMAYHHDSRRIFVGQDNGAVMEFH [WDFY1]
- protein stability index (treatment: DMSO): 3.08 ± 0.15
- protein stability index (treatment: MLN4924 1 uM, 8 h): 2.96 ± 0.32

Sequence: MAAWGKKHAGKDPVRDECEERNRF [FAM9B]
- protein stability index (treatment: DMSO): 4.59 ± 0.23
- protein stability index (treatment: MLN4924 1 uM, 8 h): 4.62 ± 0.34

Sequence: FNGKGKKIRKPRTIYCSLQLQALN [DLX1]
- protein stability index (treatment: DMSO): 2.38 ± 0.5
- protein stability index (treatment: MLN4924 1 uM, 8 h): 2.75 ± 0.31

Sequence: FDTFIQKTKKLYIDSRARRNLGSI [SEC22B]
- protein stability index (treatment: DMSO): 2.48 ± 0.5
- protein stability index (treatment: MLN4924 1 uM, 8 h): 2.22 ± 0.12

Sequence: AKDLPCDSKPESALGAPSKSPSSP [TBX5]
- protein stability index (treatment: DMSO): 5.49 ± 0.26
- protein stability index (treatment: MLN4924 1 uM, 8 h): 5.54 ± 0.2

Sequence: HKHVVQFYHYFEDKENIYILLEYC [PLK2]
- protein stability index (treatment: DMSO): 2.63 ± 0.43
- protein stability index (treatment: MLN4924 1 uM, 8 h): 2.37 ± 0.71

Sequence: RSLLPSTEYQKQLLAAQVQLQCSP [FBF1]
- protein stability index (treatment: DMSO): 3.46 ± 0.41
- protein stability index (treatment: MLN4924 1 uM, 8 h): 3.73 ± 0.18

Sequence: CSYTDLLPQDEGGGGYSSVRYSDC [KCNA4]
- protein stability index (treatment: DMSO): 2.67 ± 0.27
- protein stability index (treatment: MLN4924 1 uM, 8 h): 2.68 ± 0.24

Sequence: GPAGPYLLSKKGALQSRAAQRHRG [PLEKHN1]
- protein stability index (treatment: DMSO): 4.16 ± 0.48
- protein stability index (treatment: MLN4924 1 uM, 8 h): 3.98 ± 0.21

Sequence: GRYAYVRGGGDPWTNGSGLALCQR [MCOLN1]
- protein stability index (treatment: DMSO): 2.56 ± 0.37
- protein stability index (treatment: MLN4924 1 uM, 8 h): 3.02 ± 0.2

Sequence: TYKCTKQLLSERFGRGSRTVDLEL [ARFIP2]
- protein stability index (treatment: DMSO): 2.43 ± 0.32
- protein stability index (treatment: MLN4924 1 uM, 8 h): 2.33 ± 0.18

Sequence: NDVRQSANYTCVAMSTLGVIEAIA [PTPRD]
- protein stability index (treatment: DMSO): 2.3 ± 0.34
- protein stability index (treatment: MLN4924 1 uM, 8 h): 2.19 ± 0.3

Sequence: SSQLAQMQCLISNVEAQLSEIRCD [KRT36]
- protein stability index (treatment: DMSO): 3 ± 0.075
- protein stability index (treatment: MLN4924 1 uM, 8 h): 3.1 ± 0.31

Sequence: FGSRSLYSLGGVRSLNVASGSGKS [KRT71]
- protein stability index (treatment: DMSO): 2.35 ± 0.77
- protein stability index (treatment: MLN4924 1 uM, 8 h): 3.01 ± 0.82

Sequence: FLLSVYAPGSSVEYQCQNLYQLEG [CFHR2]
- protein stability index (treatment: DMSO): 2.75 ± 0.48
- protein stability index (treatment: MLN4924 1 uM, 8 h): 2.52 ± 0.44

Sequence: LEQFLSILPKELQGWVREHCPESG [ZSCAN9]
- protein stability index (treatment: DMSO): 2.5 ± 0.15
- protein stability index (treatment: MLN4924 1 uM, 8 h): 2.71 ± 0.29

Sequence: DAELATRAIPELTKLLNDEDQVVV [CTNNB1]
- protein stability index (treatment: DMSO): 4.79 ± 0.22
- protein stability index (treatment: MLN4924 1 uM, 8 h): 4.8 ± 0.11

Sequence: LDSQTEIYQYVQNSMAPHPARDYV [DLC1]
- protein stability index (treatment: DMSO): 2.99 ± 0.42
- protein stability index (treatment: MLN4924 1 uM, 8 h): 3.09 ± 0.25

Sequence: RYILPVYGICREPVGLVMEYMETG [RIPK4]
- protein stability index (treatment: DMSO): 2.12 ± 0.62
- protein stability index (treatment: MLN4924 1 uM, 8 h): 2.69 ± 0.55

Sequence: IKEVQKGGPADLAGLEDEDVIIEV [PDZK1]
- protein stability index (treatment: DMSO): 2.22 ± 0.27
- protein stability index (treatment: MLN4924 1 uM, 8 h): 2.49 ± 0.12

Sequence: SMQYNGSYFDRGAKGGSRLCTPEG [DFFB]
- protein stability index (treatment: DMSO): 2.98 ± 0.14
- protein stability index (treatment: MLN4924 1 uM, 8 h): 3.35 ± 0.35

Sequence: FRVTLWVHPFVNYNSSRFGEGVER [MYORG]
- protein stability index (treatment: DMSO): 2.77 ± 0.89
- protein stability index (treatment: MLN4924 1 uM, 8 h): 2.62 ± 0.41

Sequence: WVTFQVLLYTSLPDFCHKFLPGYV [DHCR7]
- protein stability index (treatment: DMSO): 3.4 ± 0.055
- protein stability index (treatment: MLN4924 1 uM, 8 h): 3.01 ± 0.91

Sequence: EEIKTWGTVFQELNKLYPTHACRE [TPH1]
- protein stability index (treatment: DMSO): 2.95 ± 0.23
- protein stability index (treatment: MLN4924 1 uM, 8 h): 3.02 ± 0.28

Sequence: PSGSLENGTKADGKDAKTTNGHGG [TRIM29]
- protein stability index (treatment: DMSO): 5.26 ± 0.45
- protein stability index (treatment: MLN4924 1 uM, 8 h): 5.58 ± 0.35

Sequence: VDDFRLKYENELALRQSVEADING [KRT13]
- protein stability index (treatment: DMSO): 4.67 ± 0.15
- protein stability index (treatment: MLN4924 1 uM, 8 h): 4.62 ± 0.2

Sequence: VYRDLKPENILLDRDGHIKLTDFG [PRKX]
- protein stability index (treatment: DMSO): 3.07 ± 0.28
- protein stability index (treatment: MLN4924 1 uM, 8 h): 3.54 ± 0.24

Sequence: YLLDRAVDSFETQRNGLVFIYDMC [PTPN9]
- protein stability index (treatment: DMSO): 2.36 ± 0.47
- protein stability index (treatment: MLN4924 1 uM, 8 h): 2.29 ± 0.29

Sequence: QDDHDHKVQELMSTHELEKKELEE [MTUS2]
- protein stability index (treatment: DMSO): 5.59 ± 0.29
- protein stability index (treatment: MLN4924 1 uM, 8 h): 5.59 ± 0.33

Sequence: VRDGFSATFEKILESELLRGTQYS [PSD2]
- protein stability index (treatment: DMSO): 2.29 ± 0.35
- protein stability index (treatment: MLN4924 1 uM, 8 h): 2.31 ± 0.12

Sequence: NEDGPSSENLEEETENIIAANHWV [TRIP13]
- protein stability index (treatment: DMSO): 5.08 ± 0.31
- protein stability index (treatment: MLN4924 1 uM, 8 h): 5.42 ± 0.23

Sequence: FYFENLWSRNSKPVHTTILNPHIH [CAMK2A]
- protein stability index (treatment: DMSO): 2.33 ± 0.51
- protein stability index (treatment: MLN4924 1 uM, 8 h): 2.5 ± 0.45

Sequence: LHRILHHKHVVQFYHYFEDKENIY [PLK2]
- protein stability index (treatment: DMSO): 2.58 ± 0.51
- protein stability index (treatment: MLN4924 1 uM, 8 h): 2.32 ± 0.38

Sequence: ALNEQACRNGSSIQIAFEEVPQLP [C2CD2L]
- protein stability index (treatment: DMSO): 3.83 ± 0.38
- protein stability index (treatment: MLN4924 1 uM, 8 h): 4.02 ± 0.12

Sequence: KQILDGVHYLHSKRIAHFDLKPEN [DAPK3]
- protein stability index (treatment: DMSO): 2.91 ± 0.18
- protein stability index (treatment: MLN4924 1 uM, 8 h): 3.19 ± 0.26

Sequence: NLAAAAADIPQDQLVVMHPTPQVD [BTBD10]
- protein stability index (treatment: DMSO): 5.14 ± 0.21
- protein stability index (treatment: MLN4924 1 uM, 8 h): 5.13 ± 0.21

Sequence: GCIAAENCIGIRDFALHYCLHHVH [GAN]
- protein stability index (treatment: DMSO): 2.72 ± 0.25
- protein stability index (treatment: MLN4924 1 uM, 8 h): 2.53 ± 0.33

Sequence: FLPGGDMMTLLMKKDTLTEEETQF [STK38L]
- protein stability index (treatment: DMSO): 2.89 ± 0.6
- protein stability index (treatment: MLN4924 1 uM, 8 h): 3.44 ± 0.51

Source: the supplement of paper PMC10567573
